According to patent US20060058505A1, “Nucleic acid and polypeptide linked to breast cancer and uses therefor” (priority 2001, published 2006):

T1: His-tagged N-terminal SH3 domain containing region of rasGAP^120 (Homo sapiens, UniProt P20936)
T1 construct: containing amino acids 1-356 which includes the full SH3 domain of rasGAP^120; made in house; host or cells: E. coli (DH5), IPTG induction; used as bacterial lysate
T1 sequence (P20936 1-356): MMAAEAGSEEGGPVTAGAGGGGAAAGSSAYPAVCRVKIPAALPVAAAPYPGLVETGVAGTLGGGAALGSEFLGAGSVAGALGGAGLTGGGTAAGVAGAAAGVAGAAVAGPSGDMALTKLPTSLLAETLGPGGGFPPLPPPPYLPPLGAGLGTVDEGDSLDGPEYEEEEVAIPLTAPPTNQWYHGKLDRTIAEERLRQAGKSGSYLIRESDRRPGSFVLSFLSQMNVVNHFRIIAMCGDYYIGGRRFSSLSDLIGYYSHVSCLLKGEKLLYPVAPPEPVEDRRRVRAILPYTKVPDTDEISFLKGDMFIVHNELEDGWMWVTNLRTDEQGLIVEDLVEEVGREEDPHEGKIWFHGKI

B1: δ-2a-N146: GST fusion of truncated G3BP-2a peptide including the N-terminal amino acids 1 to 146 (NTF2-like domain) (protein, UniProt Q9UN86 1-146, looked up, fragment)
chain: MVMEKPSPLLVGREFVRQYYTLLNKAPEYLHRFYGRNSSYVHGGVDASGKPQEAVYGQNDIHHKVLSLNFSECHTKIRHVDAHATLSDGVVVQVMGLLSNSGQPERKFMQTFVLAPEGSVPNKFYVHNDMFRYEDEVFGDSEPELD
modifications: isoform 2a GST fusion
B2: δ-2a-N257: GST fusion of truncated G3BP-2a peptide; number is the amino acid at the truncation site (protein, UniProt Q9UN86 1-257, looked up, fragment)
chain: MVMEKPSPLLVGREFVRQYYTLLNKAPEYLHRFYGRNSSYVHGGVDASGKPQEAVYGQNDIHHKVLSLNFSECHTKIRHVDAHATLSDGVVVQVMGLLSNSGQPERKFMQTFVLAPEGSVPNKFYVHNDMFRYEDEVFGDSEPELDEESEDEVEEEQEERQPSPEPVQENANSGYYEAHPVTNGIEEPLEESSHEPEPEPESETKTEELKPQVEEKNLEELEEKSTTPPPAEPVSLPQEPPKAFSWASVTSKNLPPS
modifications: isoform 2a GST fusion
notes: GST fusion of truncated G3BP-2a peptide; number is the amino acid at the truncation site
B3: full length G3BP-2a: full length G3BP-2a expressed as GST-fusion protein (protein)
chain: MVMEKPSPLLVGREFVRQYYTLLNKAPEYLHRFYGRNSSYVHGGVDASGKPQEAVYGQNDIHHKVLSLNFSECHTKIRHVDAHATLSDGVVVQVMGLLSNSGQPERKFMQTFVLAPEGSVPNKFYVHNDMFRYEDEVFGDSEPELDEESEDEVEEEQEERQPSPEPVQENANSGYYEAHPVTNGIEEPLEESSHEPEPEPESETKTEELKPQVEEKNLEELEEKSTTPPPAEPVSLPQEPPKAFSWASVTSKNLPPSGTVSSSGIPSHVKAPVSQPRVEAKPEVQSQPPRVREQRPRERPGFPPRGPRPGRGDMEQNDSDNRRIIRYPDSHQLFVGNLPHDIDENELKEFFMSFGNVVELRINTKGVGGKLPNFGFVVFDDSEPVQRILIAKPIMFRGEVRLNVEEKKTRAARERETRGGGDDRRDIRRNDRGPGGPRGIVGGGMMRDRDGRGPPPRGGMAQKLGSGRGTGQMEGRFTGQRR
modifications: left off: a dimerising Fc or GST
notes: full length G3BP-2a expressed as GST-fusion protein
B4: δ-2a-N329: GST fusion of truncated G3BP-2a peptide; number is the amino acid at the truncation site (protein, UniProt Q9UN86 1-329, looked up, fragment)
chain: MVMEKPSPLLVGREFVRQYYTLLNKAPEYLHRFYGRNSSYVHGGVDASGKPQEAVYGQNDIHHKVLSLNFSECHTKIRHVDAHATLSDGVVVQVMGLLSNSGQPERKFMQTFVLAPEGSVPNKFYVHNDMFRYEDEVFGDSEPELDEESEDEVEEEQEERQPSPEPVQENANSGYYEAHPVTNGIEEPLEESSHEPEPEPESETKTEELKPQVEEKNLEELEEKSTTPPPAEPVSLPQEPPKAFSWASVTSKNLPPSGTVSSSGIPPHVKAPVSQPRVEAKPEVQSQPPRVREQRPRERPGFPPRGPRPGRGDMEQNDSDNRRIIRYPD
modifications: isoform 2a GST fusion
notes: as for B2
B5: δ-2a-N205: GST fusion of truncated G3BP-2a peptide; number is the amino acid at the truncation site (protein, UniProt Q9UN86 1-205, looked up, fragment)
chain: MVMEKPSPLLVGREFVRQYYTLLNKAPEYLHRFYGRNSSYVHGGVDASGKPQEAVYGQNDIHHKVLSLNFSECHTKIRHVDAHATLSDGVVVQVMGLLSNSGQPERKFMQTFVLAPEGSVPNKFYVHNDMFRYEDEVFGDSEPELDEESEDEVEEEQEERQPSPEPVQENANSGYYEAHPVTNGIEEPLEESSHEPEPEPESETK
modifications: isoform 2a GST fusion
notes: as for B2

How the values were obtained:
[1] = molecular target: T1, His-tagged N-terminal SH3 domain containing region of rasGAP^120; assay: bead binding assay of GST-G3BP peptides with Western detection by anti-His antibody; settings: GST fusions bound to glutathione beads
Excerpt: However, the region within the G3BPs responsible for the observed interaction with rasGAP^120 has not been thoroughly investigated. Initially it was presumed that the interactions would be facilitated through proline rich motifs that are known to interact with SH3 domains (Lee et al. 1996). To further map the interactions between G3BPs and the SH3 domain of rasGAP^120 several GST-G3BP peptide fusions were expressed (FIG. 4) and probed in bead binding assays with His-tagged N-terminal rasGAP^120 peptides. The G3BP peptide constructs were designed to represent truncated proteins containing single or multiple domains as well as peptides that would contain isolated proline rich motifs (FIG. 4). In the assays GST-G3BP peptides are bound to glutathione beads and His-tagged N-terminal rasGAP^120 is added to the different constructs. Specific protein-protein interactions between the G3BP peptides and the SH3 domain of rasGAP^120 are detected by running the bound proteins on a Western blot and identifying His-tagged rasGAP^120 by probing with an anti-His antibody. […] No interactions were detected with the other domains of G3BP including the Acid-Rich domain, the RRM or the RGG-rich domain (FIG. 4).
Truncated cDNAs representing either N-terminal or C-Terminal sequences of G3BP-1 and G3BP-2a (FIG. 2) were subcloned into bacterial GST-fusion expression vectors (pGex, Pharmacia) so that the recombinant fusion proteins could be expressed and used in bead binding assays (see below) to identify the sub-domains of G3BP that interact with the SH3 domain of rasGAP^120. The vectors containing the recombinant fusion protein construct were transformed into competent DH5′ E. Coli and expressed by IPTG induction. To collect the recombinant proteins the cells were washed and resuspended in PBS and sonicated to release the fusion proteins.
The N-terminal domain of rasGAP^120 (kindly provided by Prof. I.G. Macara, University of Virginia) containing amino acids 1-356 which includes the full SH3 domain of rasGAP^120 was subcloned into proEX HT bacterial expression vector (Life Technologies) and expressed as described above.
Glutathione columns (Pharmacia) were blocked overnight at 4° C. in 1× binding buffer A (50 mM HEPES pH 7.4, 100 mM NaCl, 5 mM MgCl2, 50 mg/ml BSA, 1 mM DTT, 1 mM PMFS and protease inhibitors (Protease inhibitor cocktail, Roche Diagnostics, Australia). The following day the columns were washed twice with binding buffer A. Bacterial lysates containing either expressed GST alone or GST fusion proteins were diluted 1:1 with 2× binding buffer A and added to the equilibrated GST columns, the columns were gently rocked overnight at 4° C. To remove excess proteins the columns were washed twice in 1× binding buffer A. Bacterial lysates containing the His-tagged N-terminal of rasGAP^120 protein were combined with an equal volume of 2× binding buffer A containing 200 mg/ml BSA and 0.1% Tween. In addition to the high concentration of BSA, which is used to block non-specific protein-protein interactions, Ethidium bromide was added to a final concentration of 25 ng/ml to abrogate non-specific interactions caused by excess bacterial genomic DNA and bacterial RNA. This mix was then added to the pre-bound GST columns (above) and allowed to bind for 2 hrs at 4° C. The columns were then washed three times with binding buffer B (50 mM HEPES pH 7.4, 200 mM NaCl, 5 mM MgCl2, 1 mM DTT, 1 mM PMFS and protease inhibitors).
One μl of the GST beads complexed with proteins, as described above, was added to an equal volume of 2×PAGE loading dye, heated for 5 mins at 95° C. and loaded onto a 7.5% Polyacrylamide gel and run at 100V for 3 hours. The proteins were transferred to Nitrocellulose and probed with anti-His antibodies (Tetra-His antibody, Qiagen). Columns, which were bound with GST alone, were used as negative controls to ensure no non-specific His-tagged N-terminal rasGAP^120 remained associated with the columns. […]

[2] = molecular target: T2, HLA-A*0201 molecule (Homo sapiens, UniProt P04439, D140Y/D185E/D98H/E176V/E277Q/G131W/G231S/I119V/I121R/I166T/I218V/L300P/L318F/N151K/N90K/P208A/P217A/Q86G/Q94H/R138H/R169H/T345S); assay: MHC/peptide binding assay (T2 binding assay); settings: reference influenza MP 58-66 peptide
T2 construct: endogenous in cells; host or cells: T2 cells

[3] = system: peripheral blood mononuclear cells (PBMC) from healthy individuals; assay: CTL responses induced by DC in PBMC, tested in IFN-γ ELISPOT; format: cell-based; settings: after one (and two) round of stimulation, 2 separate donors
Method: The various peptides were evaluated for the generation of CTL responses induced by DC in peripheral blood mononuclear cells (PBMC) from healthy individuals and tested in ELISPOT (Gonzalez et al, 2000). T2 cells (target) pulsed with Peptide 1 or no peptide were labelled with ^51Cr and incubated with clone IH7 (effector) at various ratios. After 4 hours, ^51Cr released from lysed cells was measured and the percentage of specific lysis calculated with the formula: 100×(experimental release−spontaneous release)/(total release−spontaneous release). Total release was obtained with detergent lysis of labelled target.
Confirming this finding, we generated Peptide 1 specific CTL clones capable of identifying peptide-loaded targets in a classical chromium release assay (FIG. 11), the desired profile for an efficient anti-tumor response (Lopez and Hart, 2002), incorporated herein by reference. These clones will be instrumental in the evaluation of the expression of this antigen in cancer cells, allowing the formal evaluation of this molecule as a TAA.

[4] = molecular target: T3, HLA-A*0201 molecule on T2 cells; assay: T2 binding assay, HLA expression by flow cytometry
T3 construct: whole, on cells

Row | Molecule | interaction with the N-terminal SH3 domain containing region of rasGAP^120 [1] | also measured
1 | δ-1-N309: GST fusion of truncated G3BP-1 peptide; number is the amino acid at the truncation site | interact | –
2 | full length G3BP-1: full length G3BP-1 expressed as GST-fusion protein | interact | –
3 | IMFRGEVRL (human) [Peptide 2] | – | binding to the HLA-A*0201 molecule [2]: affinity equal to that of the control influenza MP 58-66 peptide
4 | KLPNFGFVV (Human) [Peptide 1] | – | binding to the HLA-A*0201 molecule [2]: affinity equal to that of the control influenza MP 58-66 peptide; CTL responses: IFN-γ producing peptide specific CD8+ lymphocytes [3]: Strong responses
5 | δ-1-N229: GST fusion of truncated G3BP-1 peptide; number is the amino acid at the truncation site | interact | –
6 | B1 | interacted | –
7 | B2 | interacted | –
8 | KLPNFGFVV [Peptide 1 of G3BP-2 (KLPNFGFVV)] | – | binding result [4]: binds
9 | B3 | interacted | –
10 | IMFRGEVRL [Peptide 2 of G3BP-2 (IMFRGEVRL)] | – | binding result [4]: binds
11 | B4 | interacted | –
12 | B5 | interacted | –
